# According to patent publication US20060121462A1 (published 2006):
# T1: human C3a receptor (C3aR) (human, UniProt Q16581 1-482)
# T1 construct: whole, on cells
# T1 sequence (looked up): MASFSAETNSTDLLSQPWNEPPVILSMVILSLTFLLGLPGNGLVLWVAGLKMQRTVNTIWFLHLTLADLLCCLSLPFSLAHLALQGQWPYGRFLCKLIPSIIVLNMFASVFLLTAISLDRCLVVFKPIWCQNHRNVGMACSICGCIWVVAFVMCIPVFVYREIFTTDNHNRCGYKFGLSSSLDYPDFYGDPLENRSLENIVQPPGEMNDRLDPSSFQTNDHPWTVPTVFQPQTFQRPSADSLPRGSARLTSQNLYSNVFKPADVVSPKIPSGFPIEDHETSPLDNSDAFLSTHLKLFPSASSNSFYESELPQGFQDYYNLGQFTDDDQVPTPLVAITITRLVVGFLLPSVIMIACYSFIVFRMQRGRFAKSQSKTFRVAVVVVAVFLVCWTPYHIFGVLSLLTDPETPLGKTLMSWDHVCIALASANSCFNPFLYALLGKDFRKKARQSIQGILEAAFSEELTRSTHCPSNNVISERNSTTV
# T2: human CD88 (C5a receptor) (human, UniProt P21730 1-350)
# T2 construct: whole, on cells
# T2 sequence (looked up): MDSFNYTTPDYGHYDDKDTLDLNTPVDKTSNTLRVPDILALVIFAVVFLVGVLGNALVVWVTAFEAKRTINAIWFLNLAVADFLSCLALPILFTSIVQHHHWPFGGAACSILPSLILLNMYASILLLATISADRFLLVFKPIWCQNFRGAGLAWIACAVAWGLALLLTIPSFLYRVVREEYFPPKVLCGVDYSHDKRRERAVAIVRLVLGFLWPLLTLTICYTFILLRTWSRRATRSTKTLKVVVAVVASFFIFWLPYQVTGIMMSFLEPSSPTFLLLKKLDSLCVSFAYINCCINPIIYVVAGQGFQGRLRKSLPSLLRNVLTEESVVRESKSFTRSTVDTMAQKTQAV
# B1: plasma ASP (C3a des-Arg^77), purified from human plasma (ligand)
# chain: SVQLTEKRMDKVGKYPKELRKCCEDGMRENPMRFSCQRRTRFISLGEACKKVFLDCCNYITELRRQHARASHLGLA
# modifications: FLUOS (fluorescein) label in the flow cytometry assays, ^125I label in one assay; labelled residues not stated
# notes: Unlabelled in the functional assays; also called acylation stimulating protein; FLUOS-ASP
# B2: recombinant C4a des-Arg^77 (ligand, UniProt P0C0L4 680-755, looked up)
# chain: NVNFQKAINEKLGQYASPTAKRCCQDGVTRLPMMRSCEQRAARVQQPDCREPFLSCCQFAESLRKKSRDKGQAGLQ
# notes: domain: C4a des-Arg^77; Expressed and purified under non-denaturing conditions; also called C4adR^77
# B3: recombinant C3a des-Arg^77 (ligand)
# chain: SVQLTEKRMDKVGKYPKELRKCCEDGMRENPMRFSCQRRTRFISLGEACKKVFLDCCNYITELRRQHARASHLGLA
# notes: Recombinant form, expressed and purified under non-denaturing conditions; also called C3adR^77
# B4: recombinant C4a (ligand, UniProt P0C0L4 680-756, looked up)
# chain: NVNFQKAINEKLGQYASPTAKRCCQDGVTRLPMMRSCEQRAARVQQPDCREPFLSCCQFAESLRKKSRDKGQAGLQR
# notes: domain: C4a; Expressed and purified under non-denaturing conditions
# B5: recombinant His6-tagged C3a (ligand)
# chain: not shown
# notes: domain: C3a; Expressed and purified under denaturing conditions; not shown: His6 tag
# B6: recombinant His6-tagged C5a (ligand, UniProt P01031 678-751, looked up)
# chain: TLQKKIEEIAAKYKHSVVKKCCYDGACVNNDETCEQRAARISLGPRCIKAFTECCVVASQLRANISHKDMQLGR
# notes: domain: C5a; Expressed and purified under denaturing conditions; not shown: His6 tag
# B7: recombinant His6-tagged C5a des-Arg^74 (ligand, UniProt P01031 678-750, looked up)
# chain: TLQKKIEEIAAKYKHSVVKKCCYDGACVNNDETCEQRAARISLGPRCIKAFTECCVVASQLRANISHKDMQLG
# notes: domain: C5a des-Arg^74; also called C5adR^74; not shown: His6 tag
# B8: plasma C3a, purified human C3a (ligand)
# chain: not shown
# modifications: FLUOS (fluorescein) label; labelled residues not stated
# notes: domain: C3a; also called FLUOS-C3a
# Target: T1, human C3a receptor (C3aR)
# Assay: flow cytometry, FLUOS-ASP on HEK 293 cells transiently transfected with C3aR
# Procedure: (§1) HEK 293 cells were transfected with C3aR (A) or C5L2 (B) and three days later cells were incubated for 30 minutes with the indicated concentrations of FLUOS-labelled C3a or ASP, respectively. Binding/uptake was assessed by FACS, and the percentage of cells above a fluorescence intensity of 8 was determined. The fluorescence histograms at the highest and lowest ligand concentrations are shown in the insets;
# (§2) Recombinant C3a des-Arg⁷⁷ can clearly compete with ¹²⁵I-C3a for binding to C5L2, so we then directly measured the affinity of C3a des-Arg⁷⁷ for C5L2, using protein purified from human plasma as ASP. ASP and purified human C3a were labelled with FLUOS. Increasing concentrations of ASP were incubated with HEK 293 cells transiently transfected with C5L2 and binding and uptake assessed by flow cytometry (FIG. 2A). FLUOS-ASP clearly binds to C5L2, with half maximal fluorescence intensity at approximately 3 nM, whereas mock-tansfected cells show no binding of ASP even at a high concentration of 10 nM. For comparison purposes, the binding of FLUOS-C3a and FLUOS-ASP to HEK 293 cells transiently transfected with C3aR is shown (FIG. 2B). […] Thus, C5L2 has binding characteristics that overlap with both CD88 and C3aR but also the unique ability to bind ASP/C3a des-Arg⁷⁷.
row,Binder,binding result
1,B1,no binding

# Target: T1, human C3a receptor (C3aR)
# Assay: radioligand competition on C3aR-transfected RBL cells (radioligand not given)
Binder,IC50 [nM],pD2
B2,100000,4.99 -log IC50
B3,–,< 4 -log IC50
B4,250,6.6 -log IC50
B5,155,6.81 -log IC50
B6,2900,5.54 -log IC50
B7,9670,5.02 -log IC50

# Target: T1, human C3a receptor (C3aR)
# Assay: radioligand competition on C3aR-transfected RBL cells
row,Binder,binding result
1,B3,no binding (tested: pD2 <4)

# Target: T3, human C5L2 (human, UniProt Q9P296 1-337)
# T3 construct: Expressed on stably transfected RBL-2H3 cells, on transiently or stably transfected HEK 293 cells, and endogenously on HSF cells; also called C5L2 receptor
# Assay: competition with 50 pM 125I-C5a on C5L2-transfected RBL cells, 4 C
# Procedure: (§3) Competition binding assays were performed using 50 pM ¹²⁵I-C5a or ¹²⁵I-C3a (NEN) on adherent C5aR-transfected or C5L2-transfected RBL cells in 96-well microtiter plates (55 000/well) at 4° C. as described previously (22). Competition curves were generated by pre-incubating adherent cells with increasing concentrations of unlabelled complement fragments. The IC₅₀, standard error values and linear regression analyses were obtained by using GraphPad Prism 2.0.
# T3 sequence (Q9P296 whole entry): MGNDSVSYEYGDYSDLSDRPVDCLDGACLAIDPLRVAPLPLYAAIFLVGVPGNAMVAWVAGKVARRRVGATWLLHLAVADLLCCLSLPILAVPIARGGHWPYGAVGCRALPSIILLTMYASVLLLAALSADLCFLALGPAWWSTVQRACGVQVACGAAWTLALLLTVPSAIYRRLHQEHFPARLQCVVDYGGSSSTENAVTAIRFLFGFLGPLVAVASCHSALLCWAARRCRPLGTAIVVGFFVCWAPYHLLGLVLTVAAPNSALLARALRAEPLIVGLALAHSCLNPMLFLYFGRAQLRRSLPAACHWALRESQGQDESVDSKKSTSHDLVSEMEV
Binder,IC50 [nM],pD2
B2,170000,4.72 -log IC50
B4,3790,5.42 -log IC50
B6,8.17,8.09 -log IC50
B7,36.9,7.43 -log IC50

# Target: T1, human C3a receptor (C3aR)
# Assay: flow cytometry, binding/uptake of FLUOS-C3a on HEK 293 cells transiently transfected with C3aR, 30 min at 37 C
# Procedure: as §1, §2
row,Binder,EC50 [nM]
1,B8,2.5

# Target: T3, human C5L2
# Assay: cell-based or functional assay
row,Binder,"activity in the degranulation-enhancement assay against C3a des-Arg^77, C5L2-transfected RBL cells [fold]"
1,B2,230

# Target: T2, human CD88 (C5a receptor)
# Assay: competition with 50 pM 125I-C5a on CD88-transfected RBL cells, 4 C
# Procedure: as §3
Binder,IC50 [nM],pD2
B4,4440,5.35 -log IC50
B5,230000,4.64 -log IC50
B6,20.5,7.69 -log IC50
B7,411,6.39 -log IC50

# Target: T3, human C5L2
# Assay: competition with 50 pM 125I-C3a on C5L2-transfected RBL cells, 4 C
# Procedure: as §3
Binder,IC50 [nM],pD2
B2,177,6.75 -log IC50
B4,485,6.31 -log IC50
B6,293,6.53 -log IC50
B7,–,< 3 -log IC50

# Target: T3, human C5L2
# Assay: radioligand competition on transfected RBL cells (Table I)
row,Binder,fold higher affinity for C5L2 than for C3aR [fold]
1,B2,1000
